# Measured values reported in patent US20180246086A1.
# B1: universal monoclonal antibody against type I pyrethroid secreted by hybridoma cell line QW8# (antibody, IgG2a, V domains shown)
# VH: QVTLKESGPGILQPSQTLSLTCSFSGFSLSTYGIGIGWIRQSSGRGLEWLAHIWWNDNRYYNIALKSRLTISKDASNNQFFLKLASVDTADIATYYCVRGYGRPFYAMDYWGQGTTVTVSS
# VL: QAVVTQESALTTSPGETVTLTCRSSTGAVTTSNYVNWVQEKPDHLFTGLIGGTNNRGPGVPARFSGSLIGDKAALTITGTQTEDEAIYFCALWYSNHWVFGGGTKLTVL
# Molecular target: Hapten-1-BSA, a general complete antigen of type I pyrethroid (bovine) (UniProt P02769)
# Sequence (P02769 25-607 limits assumed, form in doubt): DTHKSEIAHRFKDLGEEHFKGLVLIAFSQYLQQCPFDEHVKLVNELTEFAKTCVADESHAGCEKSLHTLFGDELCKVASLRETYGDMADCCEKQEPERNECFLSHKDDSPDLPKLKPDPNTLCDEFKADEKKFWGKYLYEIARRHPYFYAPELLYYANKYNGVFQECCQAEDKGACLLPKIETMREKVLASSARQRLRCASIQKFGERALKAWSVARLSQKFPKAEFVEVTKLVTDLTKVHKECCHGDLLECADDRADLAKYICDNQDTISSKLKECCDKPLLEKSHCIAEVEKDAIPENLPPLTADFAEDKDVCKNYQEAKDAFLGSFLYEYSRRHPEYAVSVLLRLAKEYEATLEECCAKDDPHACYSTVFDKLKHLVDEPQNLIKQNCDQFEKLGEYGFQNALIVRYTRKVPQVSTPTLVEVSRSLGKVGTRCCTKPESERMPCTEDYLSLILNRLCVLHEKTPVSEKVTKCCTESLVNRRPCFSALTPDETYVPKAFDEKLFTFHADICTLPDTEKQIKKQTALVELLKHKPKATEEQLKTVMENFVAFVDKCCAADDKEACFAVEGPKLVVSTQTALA
# Test: indirect non-competitive ELISA, plate coated with Hapten-1-BSA at 2.0, 1.0, 0.5 and 0.25 µg/mL, antibody titrated
binder,measurement,value
B1,Ka,2.16e+08 M⁻¹
